Assay results taken from paper PMC11548754, “DRN facilitates WUS transcriptional regulatory activity by chromatin remodeling to regulate shoot stem cell homeostasis in Arabidopsis” (PLOS Biology, 2024).

T1: GST-BRM (Arabidopsis, UniProt Q6EVK6 1-976)
T1 construct: The pull-down methods call it GST-BRM; also called BRAHMA; source: E. coli BL21 (DE3), purified (glutathione resin); not shown: GST, N-terminal, kept
T1 sequence (looked up): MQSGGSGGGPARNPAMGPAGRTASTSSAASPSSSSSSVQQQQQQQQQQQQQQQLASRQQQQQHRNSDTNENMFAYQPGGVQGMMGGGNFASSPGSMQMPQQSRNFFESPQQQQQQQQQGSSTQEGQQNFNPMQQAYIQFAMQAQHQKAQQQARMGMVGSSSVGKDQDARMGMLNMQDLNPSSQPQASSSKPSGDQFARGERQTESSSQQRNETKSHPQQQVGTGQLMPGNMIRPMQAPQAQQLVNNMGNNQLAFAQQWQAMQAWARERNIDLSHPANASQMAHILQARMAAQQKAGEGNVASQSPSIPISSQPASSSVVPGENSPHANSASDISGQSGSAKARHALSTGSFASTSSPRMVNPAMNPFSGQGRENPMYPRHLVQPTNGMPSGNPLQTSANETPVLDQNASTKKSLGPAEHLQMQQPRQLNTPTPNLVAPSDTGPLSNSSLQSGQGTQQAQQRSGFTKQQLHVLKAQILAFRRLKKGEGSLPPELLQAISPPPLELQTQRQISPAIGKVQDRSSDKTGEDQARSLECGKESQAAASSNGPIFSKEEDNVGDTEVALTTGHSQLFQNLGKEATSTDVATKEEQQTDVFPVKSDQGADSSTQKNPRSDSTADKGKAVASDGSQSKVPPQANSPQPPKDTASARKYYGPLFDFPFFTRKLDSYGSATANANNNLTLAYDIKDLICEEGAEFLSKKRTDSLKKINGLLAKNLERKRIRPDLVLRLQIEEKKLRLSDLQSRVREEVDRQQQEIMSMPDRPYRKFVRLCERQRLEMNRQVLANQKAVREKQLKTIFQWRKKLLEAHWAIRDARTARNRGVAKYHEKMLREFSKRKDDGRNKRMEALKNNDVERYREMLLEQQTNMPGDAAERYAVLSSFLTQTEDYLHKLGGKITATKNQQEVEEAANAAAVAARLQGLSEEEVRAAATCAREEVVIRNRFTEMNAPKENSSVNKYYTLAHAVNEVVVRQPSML

B1: 8His-MBP-DRN (natural protein)
chain: not shown
notes: also called DORNRÖSCHEN; source: E. coli BL21 (DE3), purified (Ni resin); for EMSA also size-exclusion chromatography; not shown: 8His, N-terminal, kept; MBP, N-terminal, kept

Assays:
GST-BRM = molecular target: T1, GST-BRM; assay: pull-down; beads loaded with protein and soluble protein rotated at 4°C for 4 h in pull-down buffer (200 mM NaCl, 1 mM EDTA, 20 mM Tris-HCl, 0.15 mM PMSF, pH 8.0); blots with anti-GST and anti-His; conditions: both partners purified
8His-MBP-DRN = molecular target: B1; assay: native gel or EMSA; EMSA with biotin-labelled CLV3 promoter probe (−1,090 to −1,064); GST-WUS alone or with 8His-MBP-DRN; super-shift; conditions: both partners purified
[1] = molecular target: the molecule itself; assay: pull-down; competition: agarose beads with 8His-MBP-WUS incubated with soluble GST-WUS for 6 h before soluble 8His-MBP-DRN was added; binding group without DRN

Sequence of 8His-MBP-DRN (Q9SAD4 whole entry): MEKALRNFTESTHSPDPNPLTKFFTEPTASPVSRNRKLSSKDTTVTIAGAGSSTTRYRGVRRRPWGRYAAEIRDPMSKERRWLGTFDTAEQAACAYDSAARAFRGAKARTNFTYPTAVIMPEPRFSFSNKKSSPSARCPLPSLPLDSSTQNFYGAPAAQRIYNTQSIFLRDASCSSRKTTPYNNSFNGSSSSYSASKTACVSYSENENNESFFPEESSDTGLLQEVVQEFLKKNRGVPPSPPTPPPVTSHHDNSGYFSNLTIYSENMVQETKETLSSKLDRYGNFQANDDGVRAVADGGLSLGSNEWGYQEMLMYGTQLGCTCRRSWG

binding result (GST-BRM)	binding result (8His-MBP-DRN)	Binder	binding result [1]
binds	–	B1	–
–	binds	GST-WUS (natural protein, Arabidopsis, UniProt Q9SB92 1-292, looked up, also called WUSCHEL; glutathione-S-transferase (GST)-WUS; source: E. coli BL21 (DE3), purified (glutathione resin); for EMSA also size-exclusion chromatography; not shown: GST, N-terminal, kept) MEPPQHQHHHHQADQESGNNNNNKSGSGGYTCRQTSTRWTPTTEQIKILKELYYNNAIRSPTADQIQKITARLRQFGKIEGKNVFYWFQNHKARERQKKRFNGTNMTTPSSSPNSVMMAANDHYHPLLHHHHGVPMQRPANSVNVKLNQDHHLYHHNKPYPSFNNGNLNHASSGTECGVVNASNGYMSSHVYGSMEQDCSMNYNNVGGGWANMDHHYSSAPYNFFDRAKPLFGLEGHQEEEECGGDAYLEHRRTLPLFPMHGEDHINGGSGAIWKYGQSEVRPCASLELRLN	binds
